Article PMC7338535 (Scientific Reports, 2020)

Molecular target: the molecule itself
Test: crystal structure; apo DiB3, crystals grown at 21 °C in 0.8 M sodium citrate, 50 mM sodium borate, 0.1 sodium acetate, pH 3.5; one chain in the asymmetric unit, dimer with a crystallographic symmetry mate

B1: DiB3 (natural protein)
chain: LESTSLYKKSSSTPPRGVTVVNNFDAKRYLGTWYEIARFDHRFERGLEKVTATYSLRDDGGLNFINKGYNPDRGMWQQSEGKAYFTGAPTRAALKVSFFGPFYGGYNVIALDREYRHALVCGPDRDYLWIQSRTPTISDEVKQEMLAVATREGFDVSKFIWVQQPGS
- stoichiometry N: 2
